Data: article PMC6128652, “Structure of the Cladosporium fulvum Avr4 effector in complex with (GlcNAc)6 reveals the ligand-binding mechanism and uncouples its intrinsic function from recognition by the Cf-4 resistance protein” (PLoS Pathogens, 2018)
Entries after “also recorded” stand apart in the source; their conditions may differ.

Assays:
[1] = Isothermal titration calorimetry (ITC) of CfAvr4 variants with chitin hexasaccharide; type: binding; conditions: compared with PfAvr4
Description: A stock solution of the monomer of N-acetylglucosamine was prepared by dissolving the dry powder in a buffer containing 10 mM Bis-Tris, pH 6.5, 100 mM NaCl to a concentration of 0.100 g/L using analytic techniques. Standard solution of 0, 0.010, 0.025, 0.050, 0.075 g/L were prepared by serial dilutions. Using glass test tubes and pipets, 100 μL of each standard was mixed with 300μL of concentrated sulfuric acid and vortexed for 10 sec to mix. Solutions were incubated at RT for 10 min and then placed on ice to stop the reaction. […] Analytically prepared solution of the di- and tri-saccharide scaled linearly to the calibration curve. To determine the concentration of the chitin hexasaccharide solutions used in ITC, the solutions were diluted into the dynamic range of the calibration curve (S12 Fig) and subjected to the above procedure.
All ITC experiments were performed on a TA Instruments low volume NanoITC with a 186uL reaction cell and a reference cell filled with degassed Milli-Q grade water. Reactions were run in a buffer containing 10mM Bis-Tris, pH 6.5, 100 mM NaCl. The reservoir solution was filled with protein solution and continuously stirred while Chitin hexasaccharide solutions titrated in 2.5μL aliquots for 19 injections, with an initial 1μL injection, for a total injection volume of 48.5μL. The carbohydrate solutions were made by dissolving the dry powder in buffer to a concentration of 20mM (confirmed using methods described above) and then diluted to the working concentration using the final buffer exchange flow through to match the buffers as closely as possible. The integrated heats, after correction for the heat of dilution were analyzed using the NanoAnalyze software from […]. An individual binding site model was used to fit the binding isotherm. All experiments were replicated a minimum of three times.

[2] = test system: germlings of Trichoderma viride; assay: In vitro protection assay of T. viride germlings against chitinases; type: cell-based; conditions: 5 μM protein with chitinases and β-1,3-glucanases
Description: The ability of the WT-CfAvr4 and of ChBD mutants to protect against chitinases was evaluated in in vitro protection assays conducted as described before. Briefly, spores of T. viride (3∙10^3) were pre-germinated overnight at room temperature in 100 μl of half-strength PDB medium in 96 well plates. The following day, 5 μM of WT-CfAvr4 or ChBD mutants were mixed with 7.5 units of Zymolyase (Zymo Research cat. no. E1004) and 0.2 units of bacterial chitinases (Sigma-Aldrich cat. no. C6137) and the mixture was added to the microtitre plate wells containing the pre-germinated spores in a final volume of 150 μl. Plates were incubated at 25°C for 6–8 h before evaluating under the microscope fungal growth and the ability of the proteins to provide protection against chitinases. Zymolase has β-1,3 glucanase and β-1,3-glucan laminaripentaohydrolase activity and is added to the mixture in order to remove the surface glucans from the fungal cell wall and thus expose the underlying chitin layer.

[3] = test system: Cf-4 immune receptor; assay: Pure protein infiltrations into tomato leaves of cv Purdue 135 (+ Cf-4), hypersensitive response; type: in vivo; conditions: both 5 μg/ml and 10 μg/ml, 5 dpi
Source text: Tomato seeds were obtained from the Tomato Genetic Resource Center (TGRC) at UC Davis. WT-CfAvr4 and mutants thereof with single point mutations at selected amino acids were produced and purified from E. coli Rosetta-gami B cells as description above. […]

[4] = test system: tomato leaves of cv Moneymaker (–Cf-4); assay: Pure protein infiltrations into tomato leaves of cv Moneymaker (–Cf-4), hypersensitive response; type: in vivo
Description: Tomato seeds were obtained from the Tomato Genetic Resource Center (TGRC) at UC Davis. WT-CfAvr4 and mutants thereof with single point mutations at selected amino acids were produced and purified from E. coli Rosetta-gami B cells as description above. Proteins were infiltrated at a concentration of 5 μg/mL and 10 μg/mL into the back side of MM or Purdue 135 tomato leaves using a one mL syringe and the HR response was recorded at 6 days post-infiltrations.

[5] = test system: Cf-4; assay: Agrobacterium tumefaciens transient transformation assay (ATTA): co-expression with Cf-4 in Nicotiana benthamiana leaves; type: in vivo; conditions: N. benthamiana, three cell density ratios 0.5:1, 1:1, 2:1
Description: The Agrobacterium tumefaciens transient transformation assay (ATTA) was used for the transient co-expression into leaves of Nicotiana benthamiana of Cf-4 with the WT-CfAvr4 and the mutants thereof tested in this study. Briefly, N. benthamiana plants were grown in a growth chamber with 16 h of artificial light and 70% humidity, at 25°C for 4 weeks. The true mature form of the WT-CfAvr4 (i.e. between Lys30-Gln115) and of the mutants thereof were singly cloned into the binary expression vector pICH47742 downstream of the PR1A signal sequence of Nicotiana tabacum for targeted secretion into the apoplast, and under the control of CaMV 35S promoter and NOS terminator. The tomato Cf-4 was cloned into pMOG800 as descripted before. Binary vector plasmids were transformed into A. tumefaciens strain GV3101 by electroporation. For the ATTA assay, agrobacteria transformed with pMOG800:Cf-4 was grown in 10mL LB-mannitol medium (LB medium with 10 g/L mannitol) amended with 50 μg/mL kanamycin and 25 μg/mL rifampicin, whereas agrobacteria transformed with pICH47742:WT-CfAvr4 or pICH4774:CfAvr4-mutants were grown in LB-mannitol amended with 100 μg/mL carbenicillin and 25 μg/mL rifampicin. All cultures were incubated at 28°C for 2 days, after which period they were pelleted at 2800g for 15 min, re-suspended in MMAi medium (5 g/L Murashige and Skoog basal salts, 20 g/L sucrose, 10 mM MES, and […]) at an optical cell density (A600) of 2.0, and further incubated for 2–4 h at room temperature. Agroinfiltrations were performed by mixing agrobacteria containing pMOG800:Cf-4 with agrobacteria containing pICH47742_WT-CfAvr4 or pICH47742:CfAvr4-mutants at three different ratios of optical cell densities, i.e. A6000.5:A6001.0, A6000.5:A6000.5, and A6000.5:A6000.25 of. The mixture of agrobacteria was infiltrated into the leaves of N. benthamiana plants using a 1 mL syringe and the induction of an HR in the infiltrated leaf sectors was evaluated at 5 days post-infiltrations. Control infiltrations were made using only the pMOG800:Cf-4 transformed agrobacteria and the agrobacteria containing pICH47742:CfAvr4 or the mutants thereof without mixing the two cultures, at cell densities of A6000.25, A6000.5, and A6001.0.

[6] = test system: subtilisin; assay: Subtilisin treatment (resistance against proteolytic degradation); type: in vitro ADME; parameters: key to Stability (Subtilisin assay): S: stable; PU: partially unstable; conditions: 500 ng/μL subtilisin, 30 min, room temperature
Description: The WT-CfAvr4 and selected mutants thereof were exposed to the non-specific protease subtilisin in order to determine their resistance against proteolytic degradation. Treatments with subtilisin were made as previously described with minor modifications. Briefly, 40 μM of the E. coli-produced CfAvr4 and the selected CfAvr4 mutants were mixed with 10 mM of calcium chloride and 500 ng/μL of subtilisin (Sigma-Aldrich) in a total volume of 15 μL. Samples were incubated for 30 min at room temperature, after which period they were denatured by mixing with 10 mM PMSF and SDS-PAGE loading buffer, and heating at 98°C for 10 min. Digestion products were visualized on an SDS-PAGE after staining with Coomassie blue.

B1: WT-CfAvr4: wild-type Avr4 effector protein of Cladosporium fulvum, CBM14 chitin-binding lectin, E. coli-produced mature form Lys30-Gln115 (protein)
chain: KAPKTQPYNPCKPQEVIDTKCMGPKDCLYPNPDSCTTYIQCVPLDEVGNAKPVVKPCPKGLQWNDNVGKKWCDYPNLSTCPVKTPQ
modifications: left off: 6x His (two), N-terminal, cleaved
higher binding affinity for (GlcNAc)6 than PfAvr4 [1]: 10 fold
morphology of hyphae after chitinase treatment [2]: remained morphologically intact
protection of fungal hyphae against chitinases, fungal growth ([2]; 6–8 h): enabled fungal growth and survival; also recorded: able to protect hyphae
Cf-4-mediated HR after protein infiltration [3]: strong and equal in intensity HR; also recorded: strong hypersensitive response (HR); also recorded: strong and equally in intensity necrosis
HR after protein infiltration [4]: none of the mutants or the WT-CfAvr4 induced an HR; also recorded: None of the proteins, WT-CfAvr4 or mutants, elicited an HR
HR on transient co-expression with Cf-4 [5]: strong and similar in intensity HR
Stability (Subtilisin assay) [6]: S
